In the supplement of paper PMC7125110:
± gives the standard error. This sample holds only a part of the variants without activity.

B1: glmS ribozyme (parent)
chain: AUAAAAGCGCCAGAACUACAGAAAUGUAGUUGACGAGGAGGAGGUUUAUCGAAUUUUCGGCGGAUGCCUCCAAA

How the values were obtained:
Settings in all cases: with glucosamine-6-phosphate
[1] = variants of: B1; test: self-cleavage kobs at 640 uM GlcN6P; higher = faster cleavage; RNA array
Outline: (§1)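 Barcoded ribozyme variants on sequenced MiSeq chips were transcribed in situ by E. coli RNA polymerase and followed at 37 °C through a hybridised Cy3 probe. Glucosamine-6-phosphate at 40 μM to 10 mM in HEPES/KCl/Mg(OAc)2 buffer was flowed in, and tiles were imaged over ~14 h. Signals were normalised to baseline and to non-cleaving reference variants, and per-tile medians were fit to one- or two-exponential decays to give kobs. Weighted Michaelis–Menten fits across concentrations gave kcat and KM.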

[2] = variants of: B1; test: self-cleavage kobs at 2500 uM GlcN6P; higher = faster cleavage; RNA array
Outline: as §1

[3] = variants of: B1; test: self-cleavage kobs at 10000 uM GlcN6P; higher = faster cleavage; RNA array
Outline: as §1

| Variant | self-cleavage kobs at 640 uM GlcN6P [1] | self-cleavage kobs at 2500 uM GlcN6P [2] | self-cleavage kobs at 10000 uM GlcN6P [3] |
| --- | --- | --- | --- |
| A14G G38U G66A | < 1e-05 s⁻¹ | – | – |
| C8U A14C G32A | < 1e-05 s⁻¹ | < 1e-05 s⁻¹ | – |
| C11G U45C U46C C61U | < 1e-05 s⁻¹ | < 1e-05 s⁻¹ | – |
| U55G G66C C70U | 0.000456 ± 0.0001 s⁻¹ | 0.000343 ± 8.7e-05 s⁻¹ | – |
| A6G C50G C71G | 0.000369 ± 7.4e-05 s⁻¹ | 9.48e-05 ± 2.2e-05 s⁻¹ | – |
| A15G U31C A33C A52U U54C | < 1e-05 s⁻¹ | < 1e-05 s⁻¹ | – |
| C11A A15U A64C | < 1e-05 s⁻¹ | < 1e-05 s⁻¹ | – |
| A14C A36C G51U C61A G63U C67U | 8.43e-05 ± 3.9e-05 s⁻¹ | 5.16e-05 ± 1.9e-05 s⁻¹ | – |
| A6C C16G G32U A33G G38U | < 1e-05 s⁻¹ | – | < 1e-05 s⁻¹ |
| G13U A14G G29C U49A | < 1e-05 s⁻¹ | – | – |
| A52G C61G U69A | 0.000109 ± 4.4e-05 s⁻¹ | 5.25e-05 ± 2.2e-05 s⁻¹ | – |
| A15C G35U G41A U65C C68A | < 1e-05 s⁻¹ | < 1e-05 s⁻¹ | – |
| G29U G51A A64U U69G | 0.000114 ± 3.7e-05 s⁻¹ | 0.000294 ± 9.7e-05 s⁻¹ | – |
| G43C G51U C61G | < 1e-05 s⁻¹ | < 1e-05 s⁻¹ | – |
| A36C G44U C61U C67U | < 1e-05 s⁻¹ | < 1e-05 s⁻¹ | – |
| A15U A36G G41U U47A | < 1e-05 s⁻¹ | – | – |
| A36C A42G G43A C67G | < 1e-05 s⁻¹ | – | – |
| A15U A52U G66C C71U | < 1e-05 s⁻¹ | – | – |
| C16U G32U C34G A53C | < 1e-05 s⁻¹ | < 1e-05 s⁻¹ | – |
| U31G G32U G40A A48C | < 1e-05 s⁻¹ | < 1e-05 s⁻¹ | – |
| C8U A14G A39G A53U U54G G63A | < 1e-05 s⁻¹ | < 1e-05 s⁻¹ | – |
| G37U U65A G66C | < 1e-05 s⁻¹ | – | – |
| C8U G40C C71U | < 1e-05 s⁻¹ | < 1e-05 s⁻¹ | – |

| Variant | self-cleavage kobs at 640 uM GlcN6P [1] | self-cleavage kobs at 2500 uM GlcN6P [2] | self-cleavage kobs at 10000 uM GlcN6P [3] |
| --- | --- | --- | --- |
| G29U C34U | < 1e-05 s⁻¹ | – | – |
| A12G U54A | 0.000125 ± 2.3e-05 s⁻¹ | 0.000221 ± 4.5e-05 s⁻¹ | 0.000878 ± 0.00013 s⁻¹ |
| G37C G59C | < 1e-05 s⁻¹ | < 1e-05 s⁻¹ | < 1e-05 s⁻¹ |
| G7U C50U U65A U69C C71U | 6.46e-05 ± 2.1e-05 s⁻¹ | – | – |
| C8G G13C G38U C50G | 4.5e-05 ± 2.2e-05 s⁻¹ | – | – |
| A39U A42C A53U C58U | < 1e-05 s⁻¹ | < 1e-05 s⁻¹ | – |
| A12U A15U C68G | 8.06e-05 ± 2.7e-05 s⁻¹ | – | – |
| C10U G21U G62A | < 1e-05 s⁻¹ | – | < 1e-05 s⁻¹ |
| U45G U47A A52G C68G | < 1e-05 s⁻¹ | – | – |
| C11U A15U G38A A53U | < 1e-05 s⁻¹ | – | – |
| G38A G44U C50A | < 1e-05 s⁻¹ | – | – |
| C16A A39U U54C | 0.000107 ± 2.9e-05 s⁻¹ | 0.000434 ± 9.7e-05 s⁻¹ | 0.000811 ± 0.00017 s⁻¹ |
| C10A C67G C70A | 0.000293 ± 9.2e-05 s⁻¹ | – | – |
| C11U A48U G66U | < 1e-05 s⁻¹ | – | – |
| U31A U54A C68A | 6.98e-05 ± 2.6e-05 s⁻¹ | – | – |
| A6U C61G C67A | 0.000106 ± 3.9e-05 s⁻¹ | 0.00149 ± 0.00065 s⁻¹ | – |
| C8U G32U C68A | < 1e-05 s⁻¹ | – | – |
| G9A U45C A53U G60C | < 1e-05 s⁻¹ | – | – |
| A6C U31C C70A | 7.34e-05 ± 3e-05 s⁻¹ | – | – |
| A36U G43A | < 1e-05 s⁻¹ | < 1e-05 s⁻¹ | < 1e-05 s⁻¹ |
| C8A U55G G63U | < 1e-05 s⁻¹ | – | – |
| G9U A12G C61A | 3.47e-05 ± 1.5e-05 s⁻¹ | 8.52e-05 ± 1.9e-05 s⁻¹ | – |
| A6U G29A U31A G43C U46G C58G | < 1e-05 s⁻¹ | < 1e-05 s⁻¹ | – |

| Variant | self-cleavage kobs at 640 uM GlcN6P [1] | self-cleavage kobs at 2500 uM GlcN6P [2] | self-cleavage kobs at 10000 uM GlcN6P [3] |
| --- | --- | --- | --- |
| C8U A42G A48C | < 1e-05 s⁻¹ | < 1e-05 s⁻¹ | – |
| A33G C34U G40A A42U C68A | < 1e-05 s⁻¹ | < 1e-05 s⁻¹ | – |
| A12U A53C C67U | 0.00253 ± 0.0006 s⁻¹ | – | – |
| G29A G35C G40A | < 1e-05 s⁻¹ | – | – |
| A48G A52C U57G | < 1e-05 s⁻¹ | – | – |
| C50A A52C C61A C68U | 0.000706 ± 0.00019 s⁻¹ | – | – |
| A14C C34A U46G | < 1e-05 s⁻¹ | < 1e-05 s⁻¹ | – |
| C8G G9U C10G | < 1e-05 s⁻¹ | – | – |
| A6G U31A A36G A48U | < 1e-05 s⁻¹ | – | – |
| G13U A14U G35C U46A G51U U65A | < 1e-05 s⁻¹ | – | – |
| A39C G40U G44A U55C U65G | < 1e-05 s⁻¹ | < 1e-05 s⁻¹ | – |
| U31A C58G A64C C68U | 0.00011 ± 3.5e-05 s⁻¹ | 8.36e-05 ± 2.2e-05 s⁻¹ | – |
| G9U G51U C71U | < 1e-05 s⁻¹ | – | – |
| G29A G43A U56A | < 1e-05 s⁻¹ | – | – |
| A36G G43A G59U | < 1e-05 s⁻¹ | < 1e-05 s⁻¹ | – |
| G13U G40U G63C | < 1e-05 s⁻¹ | < 1e-05 s⁻¹ | – |
| G7U C8A G13A | < 1e-05 s⁻¹ | – | – |
| C34A U54A A64C | < 1e-05 s⁻¹ | < 1e-05 s⁻¹ | – |
| A14U G29C G51U | < 1e-05 s⁻¹ | – | – |
| C11A A14C A52U | < 1e-05 s⁻¹ | – | – |
| U30C G32C C58A | 3.93e-05 ± 1.5e-05 s⁻¹ | – | – |
